Ends that are not written are not given here. * marks the point of attachment. Biotin = O=C1N[C@H]2[C@H](CS[C@H]2CCCCC(=O)*)N1
Molecular target: ankyrin B (endogenous in ND-7 cells)
Experiment: cell-based or functional assay

velocity of L1-CAM directed movement on the cell surface, against cells treated with control peptide or untreated cells: 2 fold
Binder: Biotin-RQIKIWFQNRRMKWKKQFNEDGSFIGQF [AP-YF peptide]

From patent publication US20060142189A1 (MOUNT SINAI SCHOOL OF MEDICINE OF NEW YORK UNIVERSITY, published 2006)
